Results taken from the RNAGym collection of RNA variant scans (doi:10.7554/elife.80360).

B1: Twister Ribozyme (parent)
chain: AACACUGCCAAUGCCGGUCCCAAGCCCGGAUAAAAGUGGAGGGGGCGG

Variants of: B1
Test: self-cleavage, relative activity (ratio to wild type); higher = more cleavage; co-transcriptional

First: C19U G42U
Second: C21A A34G
The self-cleavage of the first is higher: 0.142 for the first, 0.052 for the second.

Compared with C21A A34C, C20U A35U is higher in self-cleavage: 0.0648 for the first, 1.08 for the second.

Compared with C20U A35C, C21U G36A is lower in self-cleavage: 0.881 for the first, 0.0555 for the second.

Going from C21U G36C to C20A G47U, the self-cleavage rises from 0.0754 to 0.103.

First: C20A U37C
Second: C20A U37G
The self-cleavage of the first is higher: 0.111 for the first, 0.109 for the second.

First: C20A U37A
Second: C19U C21G
The self-cleavage of the first is lower: 0.0773 for the first, 0.107 for the second.

Going from C19U C21A to C19U U31C, the self-cleavage rises from 0.0697 to 0.971.

Compared with C19U U31G, C19U U31A is lower in self-cleavage: 0.956 for the first, 0.682 for the second.

Compared with C21U G48A, C21U G48C is higher in self-cleavage: 0.131 for the first, 0.133 for the second.

Going from C21U G48U to C19U A40G, the self-cleavage falls from 0.125 to 0.108.

First: C19U G44A
Second: C19U G44U
The self-cleavage of the first is higher: 1.03 for the first, 0.86 for the second.

Going from C19U G44C to C20A A32U, the self-cleavage falls from 0.608 to 0.186.

Going from C20A A22G to C20A A22U, the self-cleavage rises from 0.0601 to 0.0761.

Going from C21A A40C to C21A A40U, the self-cleavage falls from 0.0907 to 0.0782.

First: C21U G47C
Second: C21U G47A
The self-cleavage of the first is lower: 0.0939 for the first, 0.123 for the second.

Compared with C20U A34C, C21U C26U is higher in self-cleavage: 0.0697 for the first, 0.0769 for the second.

Going from C21U C26G to C21G G29U, the self-cleavage rises from 0.0581 to 0.0841.

Compared with C21G G29C, C19U A33G is higher in self-cleavage: 0.123 for the first, 0.889 for the second.

Going from C20A G48C to C20U G48U, the self-cleavage rises from 0.169 to 0.963.

Going from C20U G48A to C19U G24U, the self-cleavage falls from 0.907 to 0.0889.

Going from C19U G24A to C20U G47U, the self-cleavage rises from 0.0904 to 0.564.

Going from C20U G47C to A22C G39A, the self-cleavage rises from 0.165 to 0.238.

Going from C21G G42U to C21U C25U, the self-cleavage falls from 0.111 to 0.0856.

Going from C20U G42U to C20U G42A, the self-cleavage rises from 0.399 to 0.935.

Going from C21U G38U to A22C C26G, the self-cleavage rises from 0.0705 to 0.112.

Going from A22C C26U to C21G C26G, the self-cleavage falls from 0.631 to 0.0411.

Going from C19U A34U to C21A C26A, the self-cleavage falls from 0.56 to 0.069.

Compared with C21A C26U, C20U C27G is higher in self-cleavage: 0.07 for the first, 0.0816 for the second.

Going from C20U C27U to C20U C27A, the self-cleavage falls from 0.708 to 0.171.

Compared with A22C G48A, A22C G24C is lower in self-cleavage: 1.01 for the first, 0.0817 for the second.

Going from A22C G24U to A22C G24A, the self-cleavage rises from 0.0876 to 0.131.

Going from C20G A22G to C20G A33G, the self-cleavage rises from 0.0602 to 0.0756.

First: C20G A33C
Second: C20G A33U
The self-cleavage of the first is lower: 0.0661 for the first, 0.13 for the second.

Going from A22C A32U to A22C A32C, the self-cleavage rises from 0.858 to 1.08.

Compared with A22C A32G, C21G U37C is lower in self-cleavage: 0.879 for the first, 0.0765 for the second.

First: C21G U37A
Second: A22C G41C
The self-cleavage of the first is lower: 0.101 for the first, 0.195 for the second.

Compared with C21A G28C, C21A G28U is lower in self-cleavage: 0.149 for the first, 0.129 for the second.

Going from C21A A30G to C21A G29U, the self-cleavage rises from 0.0944 to 0.134.

First: C21A C27G
Second: C21A C27U
The self-cleavage of the first is higher: 0.0914 for the first, 0.0904 for the second.

Compared with C21A C27A, C19U A30G is higher in self-cleavage: 0.0685 for the first, 0.918 for the second.

First: C20A G28U
Second: C20A G28A
The self-cleavage of the first is lower: 0.0952 for the first, 0.0974 for the second.

Compared with C20A G28C, C20G C26U is lower in self-cleavage: 0.125 for the first, 0.0527 for the second.

First: C21G G44C
Second: C21G G44U
The self-cleavage of the first is lower: 0.0843 for the first, 0.102 for the second.

Compared with C21G G44A, C21U G43A is lower in self-cleavage: 0.0938 for the first, 0.08 for the second.

Going from C21U G43C to C19U G29A, the self-cleavage rises from 0.0867 to 0.806.

First: C20U C26G
Second: C20A C21U
The self-cleavage of the first is higher: 0.0973 for the first, 0.0931 for the second.

Going from C20A C21A to C20A C21G, the self-cleavage rises from 0.0664 to 0.0829.

Going from C21G G47A to C21G G47U, the self-cleavage rises from 0.0718 to 0.142.

First: C20A G45U
Second: C20A G45A
The self-cleavage of the first is higher: 0.17 for the first, 0.144 for the second.

Going from C20G A35C to C21U G39A, the self-cleavage falls from 0.14 to 0.0714.

Compared with A22C A35G, A22C A35C is lower in self-cleavage: 1.02 for the first, 1.01 for the second.

First: A22C G42U
Second: A22C A30C
The self-cleavage of the first is lower: 0.198 for the first, 1.07 for the second.

First: A22C A30G
Second: C21A A35C
The self-cleavage of the first is higher: 1.16 for the first, 0.083 for the second.

First: C21A A35G
Second: C19U G38A
The self-cleavage of the first is lower: 0.0738 for the first, 0.855 for the second.

Compared with C19U G38U, C19U G38C is higher in self-cleavage: 0.36 for the first, 0.782 for the second.

First: C20A G39C
Second: C20A G39U
The self-cleavage of the first is lower: 0.0811 for the first, 0.0846 for the second.

Going from C20A U31C to C20A U31G, the self-cleavage rises from 0.117 to 0.177.

Compared with C19U G43U, C19U G43A is higher in self-cleavage: 1.02 for the first, 1.04 for the second.

First: C20A G42A
Second: C20A G42U
The self-cleavage of the first is lower: 0.107 for the first, 0.668 for the second.

Going from A22C G36C to A22C G36A, the self-cleavage rises from 0.345 to 0.547.

Going from C20G G42A to C20G G42U, the self-cleavage rises from 0.083 to 0.386.

Going from C20G G42C to C20A C27G, the self-cleavage falls from 0.791 to 0.0759.

Going from C20A C27U to C20A C27A, the self-cleavage rises from 0.0852 to 0.0891.

Going from C21G A34U to C21G A34G, the self-cleavage rises from 0.0291 to 0.0977.

First: C20A A34C
Second: C21G A32C
The self-cleavage of the first is higher: 0.102 for the first, 0.0636 for the second.

Compared with C21G A32G, C20G G43A is higher in self-cleavage: 0.0254 for the first, 0.0749 for the second.

First: C20A G44A
Second: C20A G44U
The self-cleavage of the first is higher: 0.198 for the first, 0.107 for the second.

First: C21G A30U
Second: C19U U37C
The self-cleavage of the first is lower: 0.0816 for the first, 0.242 for the second.

Compared with C20A A23C, C20U C25U is higher in self-cleavage: 0.1 for the first, 0.545 for the second.

Compared with C20U C25G, C21G G43C is lower in self-cleavage: 0.088 for the first, 0.0506 for the second.

Going from A22C A33G to C20G G45C, the self-cleavage falls from 0.802 to 0.136.

Compared with A22C A23U, C20A G36A is lower in self-cleavage: 0.243 for the first, 0.0747 for the second.

First: C21A G38C
Second: C20G A32U
The self-cleavage of the first is higher: 0.101 for the first, 0.0524 for the second.

Going from C20G A32C to C20G A32G, the self-cleavage rises from 0.078 to 0.0903.

First: C20U G41A
Second: C20U G41U
The self-cleavage of the first is lower: 0.124 for the first, 0.141 for the second.

Compared with C19U G47C, C21G G45C is lower in self-cleavage: 0.235 for the first, 0.0674 for the second.

First: C21G G45U
Second: C21G G45A
The self-cleavage of the first is lower: 0.0493 for the first, 0.114 for the second.

Compared with C19U G28C, C20A C25A is lower in self-cleavage: 0.908 for the first, 0.0826 for the second.

First: C20G U37G
Second: C19U A32U
The self-cleavage of the first is lower: 0.0665 for the first, 1.02 for the second.

First: A22C G29A
Second: A22C G29U
The self-cleavage of the first is higher: 1.01 for the first, 0.89 for the second.

Compared with C20U A33G, C20U A33C is lower in self-cleavage: 0.988 for the first, 0.894 for the second.

Going from C21G A40G to C21G A40C, the self-cleavage falls from 0.0831 to 0.0546.

Going from C19U G39C to C19U G39U, the self-cleavage rises from 0.0962 to 0.125.

Variant C19U G39A has a self-cleavage of 0.28.
